Assay results from patent US20230192845A1.

How the values were obtained:
[1] = target: human CD96 short isoform v2 expressed on CHO cells (human) (UniProt P40200); test: FCM on hCD96v2-CHO cells
[2] = target: human CD96 short isoform v2 expressed on CHO cells (human) (UniProt P40200); test: FCM, inhibition of hCD155-Fc binding to hCD96v2-CHO cells
[3] = target: T1, hCD96-humanIgG1 fusion protein (human) (UniProt P40200); test: SPR (Biacore), hCD96-hFc captured by anti-huFc
T1 sequence: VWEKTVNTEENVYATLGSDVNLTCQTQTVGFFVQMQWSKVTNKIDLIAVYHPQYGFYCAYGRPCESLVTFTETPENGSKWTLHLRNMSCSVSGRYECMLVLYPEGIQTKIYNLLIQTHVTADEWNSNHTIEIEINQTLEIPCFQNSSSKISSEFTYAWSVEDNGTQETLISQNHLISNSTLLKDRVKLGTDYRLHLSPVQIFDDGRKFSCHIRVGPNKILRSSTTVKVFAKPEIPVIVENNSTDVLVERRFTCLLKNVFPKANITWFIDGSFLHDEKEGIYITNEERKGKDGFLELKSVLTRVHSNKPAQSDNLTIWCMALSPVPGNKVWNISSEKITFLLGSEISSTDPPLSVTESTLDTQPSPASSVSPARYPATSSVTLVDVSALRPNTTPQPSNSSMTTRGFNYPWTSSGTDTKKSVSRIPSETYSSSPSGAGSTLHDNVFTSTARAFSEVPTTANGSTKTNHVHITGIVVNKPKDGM

[4] = target: hCD226-His tagged protein transiently expressed on CHO cells (human) (UniProt Q15762); test: FRET between anti-hCD226-PE (DX11) and anti-HA-APC by flow cytometry on CHO cells transfected with hCD96-HA and hCD226-His; right-hand plot; the left-hand plot of the panel prints FRET 0,22% (taken as the pooled negative control)
Sequence of hCD226-His tagged protein transiently expressed on CHO cells (human) (Q15762 19-336): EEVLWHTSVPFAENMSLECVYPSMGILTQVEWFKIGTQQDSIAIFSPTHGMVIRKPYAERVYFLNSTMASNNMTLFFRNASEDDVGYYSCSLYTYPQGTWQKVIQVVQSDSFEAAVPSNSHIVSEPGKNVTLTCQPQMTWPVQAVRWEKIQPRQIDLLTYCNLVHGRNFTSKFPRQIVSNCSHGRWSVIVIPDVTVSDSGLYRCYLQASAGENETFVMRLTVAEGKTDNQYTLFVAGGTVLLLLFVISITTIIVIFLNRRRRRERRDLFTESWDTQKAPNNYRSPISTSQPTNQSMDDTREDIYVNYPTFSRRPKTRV

[5] = target: hCD96-HA tagged protein transiently expressed on CHO cells (FRET assay) (human) (UniProt P40200); test: FRET between anti-HA-PE and anti-HA-APC by flow cytometry on CHO cells transfected with hCD96-HA; right-hand plot; the left-hand plot of the panel prints FRET 0,10% (taken as the pooled negative control)

Substance	EC50 [1]	Maximum binding (delta MFI) [1]	IC50 [2]	Maximal Inhibition Capacity (%) [2]	Kd [3]	koff [3]	kon [3]	FRET (% of cells in the FRET gate) [4]	FRET (% of cells in the FRET gate) [5]
NK92.39 (antibody)	1.59 nM	283000 delta MFI	10.4 nM	100%	3.24 nM	0.000346 s⁻¹	107000 M⁻¹ s⁻¹	–	–
clone 628211 (antibody)	3.75 nM	543000 delta MFI	15.8 nM	100%	–	–	–	–	–
hCD96-HA tagged protein transiently expressed on CHO cells (FRET assay) (from UniProt P40200 22-585) (receptor)	–	–	–	–	–	–	–	17.9%	11.6%
